Assay results as given in patent US20260184782A1 (TWIST BIOSCIENCE, published 2026).

T1: human TIGIT-Fc (human, UniProt Q495A1 22-141, limits assumed)
T1 construct: not shown: Fc; not described
T1 sequence (looked up): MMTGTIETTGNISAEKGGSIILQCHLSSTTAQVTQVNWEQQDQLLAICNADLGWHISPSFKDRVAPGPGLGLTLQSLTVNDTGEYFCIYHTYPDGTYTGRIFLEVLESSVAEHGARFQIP

T2: TIGIT (UniProt Q495A1 22-141, limits assumed)
T2 construct: also called T cell immunoreceptor with Ig and ITIM domains; hTIGIT
T2 sequence (looked up): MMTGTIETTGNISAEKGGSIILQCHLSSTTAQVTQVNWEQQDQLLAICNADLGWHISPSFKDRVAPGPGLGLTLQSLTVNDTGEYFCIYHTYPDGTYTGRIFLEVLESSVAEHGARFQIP


Columns and labels:
human TIGIT-Fc = target: T1, human TIGIT-Fc; test: CD155 competition ELISA, single point; note: test concentration or dose not given here
Method: TIGIT/CD155 inhibition of VHH-Fcs were assessed using an ELISA assay (Table 10B). Briefly, human TIGIT-Fc was coated on a plate & then incubated with VHH-Fcs and human CD155-biotin. Bound CD155-biotin was detected using a streptavidin-HRP conjugate visualized with TMB. Strong inhibitors from the single point screen were titrated to determine EC50 (Table 10C).

TIGIT = target: T2, TIGIT; test: SPR, VHH-V5-His

| Binder | OD (450 nm) (human TIGIT-Fc) | further results |
| --- | --- | --- |
| TIGIT-SC181 (Fc fusion, VHH-Fc) VHH: EVQLVESGGGLVQPGGSLRLSCAASGFTLSSNWMGWFRQAPGKEREFVASVLRGGYTWYADSVKGRFTISADNSKNTAYLQMNSLKPEDTAVYYCARDAYYYGLWGQGTLVTVSS | 0.554 OD |  |
| TIGIT-SC206 (Fc fusion, VHH-Fc) VHH: EVQLVESGGGLVQPGGSLRLSCAASGFLFDSYVMGWFRQAPGKEREFVAAIWRSGTLKAYADSVKGRFTISADNSKNTAYLQMNGLKPEDTAVYYCAGVGTDYGDYLFNYWGQGTLVTVSS | 0.517 OD |  |
| TIGIT-SC167 (Fc fusion, VHH-Fc) VHH: EVQLVESGGGLVQPGGSLRLSCAASGRTFSFMGWFRQAPGKEREWVASVLRGGYTWYADSVKGRFTISADNSKNTAYLQMNSLKPEDTAVYYCAREGSGYASDYWGQGTLVTVSS | 0.279 OD |  |
| TIGIT-SC204 (Fc fusion, VHH-Fc) VHH: EVQLVESGGGLVQPGGSLRLSCAASGFLFNSYWMVWFRQAPGKEREFVAAIWRSGTLKAYADSVKGRFTISADNSKNTAYLQMNSLKPEDTAVYYCAADVNYGSTWRNWGQGTLVTVSS | 0.449 OD |  |
| TIGIT-31-06 (VHH-V5-His) (VHH, also called TIGIT-31-6; 31-6; not shown: V5-His tag) VHH: EVQLVESGGGLVQPGGSLRLSCAASGFTFSTSWMGWFRQAPGKERELVASITSGGSTYYADSVKGRFTISADNSKNTAYLQMNSLKPEDTAVYYCAADVWYGSTWRNWGQGTLVTVSS |  | Kd (TIGIT): 0.145 µM; RU (TIGIT): 107 RU; koff (TIGIT): 0.003 s⁻¹; kon (TIGIT): 20000 M⁻¹ s⁻¹ |
| TIGIT-31-01 (VHH-V5-His) (VHH, also called TIGIT-31-1; 31-1; not shown: V5-His tag) VHH: EVQLVESGGGLVQPGGSLRLSCAASGFTFDRSWMGWFRQAPGKEREVVASITSGGSTYYADSVKGRFTISADNSKNTAYLQMNSLKPEDTAVYYCAADVWYGSTWRNWGQGTLVTVSS |  | Kd (TIGIT): 0.169 µM; RU (TIGIT): 122 RU; koff (TIGIT): 0.004 s⁻¹; kon (TIGIT): 20000 M⁻¹ s⁻¹ |
| TIGIT-31-08 (VHH-V5-His) (VHH, also called TIGIT-31-8; 31-8; not shown: V5-His tag) VHH: EVQLVESGGGLVQPGGSLRLSCAASGFTFSTSWMGWFRQAPGKERELVAARNSGGNTNYADSVKGRFTISADNSKNTAYLQMNSLKPEDTAVYYCAADVWYGSTWRNWGQGTLVTVSS |  | Kd (TIGIT): 0.21 µM; RU (TIGIT): 178 RU; koff (TIGIT): 0.009 s⁻¹; kon (TIGIT): 40000 M⁻¹ s⁻¹ |
| TIGIT-SC205 (Fc fusion, VHH-Fc) VHH: EVQLVESGGGLVQPGGSLRLSCAASGFTFDRSWMGWFRQAPGKEREFVAAIWRSGTLKAYADSVKGRFTISADNGKNTAYLQMNSLKPEDTAVYYCAEGGTTAWGWFVPWGQGTLVTVSS | 0.441 OD |  |
| TIGIT-SC169 (Fc fusion, VHH-Fc) VHH: EVQLVESGGGLVQPGGSLRLSCAASGFTLNDYAMGWFRQAPGKERELVAWIARYDGSTLYADSVKGRFTISADNSKNTAYLQMNSLKPEDTAVYYCTTELRWELQQPDYWGQGTLVTVSS | 0.679 OD |  |
| TIGIT-SC213 (Fc fusion, VHH-Fc) VHH: EVQLVESGGGLVQPGGSLRLSCAASGTFQRINAMGWFRQAPGKEREFVAAIWRSGTLKAYADSVKGRFTISADNSKNTAYLQMNSLKPEDTAVYYCARWVGASGDYWIDYWGQGTLVTVSS | 0.587 OD |  |
| TIGIT-SC176 (Fc fusion, VHH-Fc) VHH: EVQLVESGGGLVQPGGSLRLSCAASGFTFSPSWMGWFRQAPGKEREWVASVLRGGYTWYADSVKGRFTISADNSKNTAYLQMNSLKPEDTAVYYCVHEDSVAAHFDFWGQGTLVTVSS | 0.57 OD |  |
| TIGIT-SC177 (Fc fusion, VHH-Fc) VHH: EVQLVESGGGLVQPGGSLRLSCAASGFTFSPSWMGWFRQAPGKEREWVASVLRGGYTWYADSVKGRFTISADNSKNTAYLQMNSLKPEDTAVYYCATDRGPAMVFNLWGQGTLVTVSS | 0.507 OD |  |
| TIGIT-30-58 (VHH-V5-His) (VHH, not shown: V5-His tag) VHH: EVQLVESGGGLVQAGGSLRLSCAASGFAFGDSWMGWFRQAPGKEREWVSGISSGGGRTYYADSVKGRFTISADNAKNTVYLQMNSLKPEDTAVYYCAADVWYGSTWRNWGQGTQVTVSS |  | Kd (TIGIT): 1.06 µM; RU (TIGIT): 120 RU; koff (TIGIT): 0.01 s⁻¹; kon (TIGIT): 10000 M⁻¹ s⁻¹ |
| TIGIT-SC174 (Fc fusion, VHH-Fc) VHH: EVQLVESGGGLVQPGGSLRLSCAASGFLFDSYAMGWFRQAPGKEREFVAAISWSGGSTYYADSVKGRFTISADNSKNTAYLQMNSLKPEDTAVYYCTTDALRFLEWPWWGQGTLVTVSS | 0.532 OD |  |
| TIGIT-SC186 (Fc fusion, VHH-Fc) VHH: EVQLVESGGGLVQPGGSLRLSCAASGNTFSGGFMGWFRQAPGKEREYVASVLRGGYTWYADSVKGRFTISADNSKNTTYLQMNSLKPEDTAVYYCTTDRGYNWNYDWGQGTLVTVSS | 0.576 OD |  |
| TIGIT-SC190 (Fc fusion, VHH-Fc) VHH: EVQLVESGGGLVQPGGSLRLSCAASGFTFDRSWMGWFRQAPGKEREWVASVLRGGYTWYADSVKGRFTISADNSKNTAYLQMNSLKPEDTAVYYCVTDVGAPDYWGQGTLVTVSS | 0.533 OD |  |
| TIGIT-SC180 (Fc fusion, VHH-Fc) VHH: EVQLVESGGGLVQPGGSLRLSCAASGFTLNDYAMGWFRQAPGKERELVAWIARYDGSTLYADSVKGRFTISADNSKNTAYLQMNSLKPEDTAVYYCASEVASGETDYWGQGTLVTVSS | 0.639 OD |  |
| TIGIT-SC182 (Fc fusion, VHH-Fc) VHH: EVQLVESGGGLVQPGGSLRLSCAASGFTFSSSSMGWFRQAPGKEREFVAAINWSGGSTSYADSVKGRFTISADNSKNTAYLQMNSPKPEDTAVYYCAKDRSYSFDYWGQGTLVTVSS | 0.607 OD |  |
| TIGIT-SC192 (Fc fusion, VHH-Fc) VHH: EVQLVESGGGLVQPGGSLRLSCAASGFTFSVYWMGWFRQAPGKEREFVAAISRSGTLKEYADSVKGRFTISADNSKNTAYLQMNSLKPEDTAVYYCARGSGWPKIHFDYWGQGTLVTVSS | 0.487 OD |  |
| TIGIT-SC214 (Fc fusion, VHH-Fc) VHH: EVQLVESGGGLVQPGGSLRLSCAASGFTFGDSWMGWFRQAPGKEHEFVAAIWRSGTLKAYADSVKGRFTISADNSKNTAYLQMNSLKPEDTAVYYCTSYDAVAGTRDFWGQGTLVTVSS | 0.828 OD |  |
| TIGIT-SC166 (Fc fusion, VHH-Fc) VHH: EVQLVESGGGLVQPGGSLRLSCAASGFTFDRSWMGWFRQAPGKEREWVASVLRGGYTWYADSVKGRFTISADNSKNTAYLQMNSLKPEDTAVYYCAREGSGYASDYWGQGTLVTVSS | 0.328 OD |  |
| TIGIT-SC178 (Fc fusion, VHH-Fc) VHH: EVQLVESGGGLVQPGGSLRLSCAASGFTLSPSWMGWFRQAPGKEREWVASVLRGGYTWYADSVKGRFTISADNSKNTAYLQMNSLKPEDTAVYYCASEVASGETDYWGQGTLVTVSS | 0.494 OD |  |
| TIGIT-SC184 (Fc fusion, VHH-Fc) VHH: EVQLVESGGGLVQPGGSLRLSCAASGFTFSPSWMGWFRQAPGKEREWVASVLRGGYTWYADSVKGRFTISADNSKNTAYLQMNSLKPEDTAVYYCTTDRGYNWNYDWGQGTLVTVSS | 0.534 OD |  |
| TIGIT-SC168 (Fc fusion, VHH-Fc) VHH: EVQLVESGGGLVQPGGSLRLSCAASGFTFDRSWMGWFRQAPGKEREWVASVLRGGYAWYADSVKGRFTISADNSKNTAYLQMSSLKPEDTAVYYCAREGSGYASDYWGQGTLVTVSS | 0.306 OD |  |
| TIGIT-SC199 (Fc fusion, VHH-Fc) VHH: EVQLVESGGGLVQPGGSLRLSCAASGFSSAQYAMGWFRQAPGKERELVASIDSEGRTNYADSVKGRFTISADNSKNTAYLQMNSLKPEDTAVYYCTRDGGFDPWGQGTLVTVSS | 0.503 OD |  |
| TIGIT-SC208 (Fc fusion, VHH-Fc) VHH: EVQLVESGGGLVQPGGSLRLSCAASGFLFDSYVMGWFRQAPGKEREFVAAIWRSGTLKAYADSVKGRFTISADNSKNTEYLQMNSLKPEDTAVYYCARDDYGDTRRYFQHWGQGTLVTVSS | 0.544 OD |  |
| TIGIT-SC207 (Fc fusion, VHH-Fc) VHH: EVQLVESGGGLVQPGGSLRLSCAASGFAFSSYVMGWFRQAPGKEREFVAAIWRSGTLKAYADSVKGRFTISADNSKNTEYLQMNSLKPEDTAVYYCARDDYGDTRRYFQHWGQGTLVTVSS | 0.504 OD |  |
| TIGIT-SC209 (Fc fusion, VHH-Fc) VHH: EVQLVESGGGLVQPGGSLRLSCAASGFLFNSYWMGWFRQAPGKEREFVAAIWRSGTLKAYADSVKGRFTISADNSKNTEYLQMNSLKPEDTAVYYCARDDYGDYRIYFQHWGQGTLVTVSS | 0.56 OD |  |
| TIGIT-30-54 (VHH-V5-His) (VHH, not shown: V5-His tag) VHH: EVQLVESGGGLVQAGGSLRLSCAASGFTFRSFGMGWFRQAPGKEREFVASTIWSRGDTYYADSVKGRFTISADNAKNTVYLQMNSLKPEDTAVYYCASSPYGPLYRSTHYYDWGQGTQVTVSS |  | Kd (TIGIT): 1.09 µM; RU (TIGIT): 130 RU; koff (TIGIT): 0.04 s⁻¹; kon (TIGIT): 30000 M⁻¹ s⁻¹ |
